In patent US20170369590A1 (published 2017):

What was measured:
[1] = biological target: T1, human epidermal growth factor receptor 2 (HER2), membrane-bound on cells (human, UniProt P04626 23-1255); test: FACS binding; A431 cells
[2] = biological target: T1, human epidermal growth factor receptor …; test: FACS binding; AU565 cells

EC50 [1] [µg/mL] | EC50 [2] [µg/mL] | Binder
0.101 | 0.336 | HuMab 098 (antibody, V domains shown) VH: EVQLLESGGGLVQPGGSLRLSCAASGFTFSNYGMSWVRQAPGKGLEWVSAISGSAYSTYYADSVKGRFTISRDNSKNTLWLQMNSLRAEDTAVYYCAKAHYHGSGSYYTLFDYWGQGTLVTVSS VL: DIQMTQSPSSLSASVGDRVTITCRASQGISSWLAWYQQKPEKAPKSLIYAASSLQSGVPSRFSGSGSGTDFTLTISSLQPEDFATYYCQQYNSYPYTFGQGTKLEIK
0.244 | 0.626 | HuMab 153 (antibody, V domains shown) VH: QVQLVESGGGVVQPGRSLRLSCAASGFTFSDYVIHWVRQAPGKGLEWVTVISYDGSNKYYADSVKGRFTISRDNSKNTLYLQMNSLSAEDTAMYYCARGGITGTTGVFDYWGQGTLVTVSS VL: DIQMTQSPSSLSASVGDRVTITCRASQGISSWLAWYQQKPEKAPKSLIYDASSLQSGVPSRFSGSGYGTDFSLTISSLQPEDFAIYYCQQYKSYPITFGQGTRLEIK
0.415 | 0.908 | HuMab 169 (antibody, V domains shown) VH: QVQLVQSGAEVKKPGASVKVSCKASGYTFTNYGISWVRQAPGQGLEWMGWLSAYSGNTIYAQKLQGRVTMTTDTSTTTAYMELRSLRSDDTAVYYCARDRIVVRPDYFDYWGQGTLVTVSS VL: EIVLTQSPATLSLSPGERATLSCRASQSVSSYLAWYQQKPGQAPRLLIYDASNRATGIPARFSGSGSGTDFTLTISSLEPEDFAVYYCQQRSNWPRTFGQGTKVEIK
0.068 | 0.911 | HuMab 132 (antibody, V domains shown) VH: QVQLVQSGAEVKKPGASVKVSCKASGYTFTSYGISWVRQAPGQGLEWMGWISAYNGNSNYVQKFQGRVTMTTDTTTSTAYMELRSLTSDDTAVYYCAREYSYDSGTYFYYGMDVWGQGTTVTVSS VL: EIVLTQSPATLSLSPGERATLSCRASQSVSSYLAWYQQKPGQAPRLLIYDASNRATGIPARFSGSGSGTDFTLTISSLEPEDFAVYYCQQRSNWPMYTFGQGTKLEIK
0.498 | 0.491 | HuMab 084 (antibody, V domains shown) VH: QVQLVQSGAEVKKPGSSVKVSCKASGGTFRTYAINWVRQAPGQGLEWMGRINTVLGIVNHAQKFQGRVTITADKSTNTAYMELNSLRSEDTAVYYCAREKGVDYYYGIEVWGQGTTVTVSS VL: DIQMTQSPSSVSASVGDRVTITCRASQGISSWLAWYQHKPGKAPKLLIYVASTLQSGVPSRFSGSGSGTDFTLTISSLQPEDFATYYCQQANSFPLTFGGGTKVEIK

More lines, now with the values behind:

Binder | EC50 [1] [µg/mL] | EC50 [2] [µg/mL]
HuMab 129 (antibody, V domains shown) VH: QVQLVESGGGVVQPGRSLRLSCAASGFTFSTFAIHWVRQAPGKGLEWVAVISYDGGHKFYADSVKGRFTISRDNSKNTLYLQMNSLRAEDTAMYYCARGLGVWGAFDYWGQGTLVTVSS VL: EIVLTQSPATLSLSPGERATLSCRASQSVSSYLAWYQQKPGQAPRLLIYDASNRATGIPARFSGSGSGTDFTLTISSLEPEDFAVYYCQQRSNWWTFGQGTKVEIK | 0.316 | 0.578
HuMab 025 (antibody, V domains shown) VH: QVQLQQWGAGLLKPSETLSLTCAVYGGSFSDYYWNWIRQPPGKGLEWIGEIHHSGSTNYNPSLKSRVTISVDTSKNQFSLKLSSVTAADTAVYYCARGYYDSGVYYFDYWAQGTLVTVSS VL: DIQMTQSPSSLSASVGDRVTITCRASQGISRWLAWYQQKPEKAPKSLIYAASSLRSGVPSRFSGSGSGTDFTLTISSLQPEDFATYYCQQYNSYPITFGQGTRLEIK | 0.128 | 0.58
HuMab 050 (antibody, V domains shown) VH: EVQLLESGGGLVQPGGSLRLSCAASGFTFSSYAMNWVRQAPGKGLEWVSAISGRGGTTYYADSVKGRFTISRDNSKNTLYLQMSSLRAEDTAVYYCAKARANWDYFDYWGQGTLVTVSS VL: DIQMTQSPSSVSASVGDRVTITCRASQGISSWLAWYQHKPGKAPKLLIYAASILQSGVPSRFSGSGSGTDFTLTISSLQPEDFATYYCQQANSFPITFGQGTRLEIK | 1.14 | 0.722
HuMab 159 (antibody, V domains shown) VH: EVQLVQSGAEVKKPGESLKISCKGSGYNFTSYWIGWVRQMPGKGLEWMGIIYPGDSDTRYSPSFQGQVTISADKSISTAYLQWSSLKASDTAMYYCARWGTYYDILTGYFNWFDPWGQGTLVTVSS VL: DIQMTQSPSSLSASVGDRVTITCRASQGISSWLAWYQQKPEKAPKSLIYAASSLQSGVPSRFSGSGSGTDFTLTISSLQPEDFATYYCQQYYIYPWTFGQGTKVEIK | 0.855 | 1.3
HuMab 127 (antibody, V domains shown) VH: EVQLVQSGAEVKKPGESLTISCKGSGYSFSIYWIGWVRQMPGKGLEWMGIIFPGDSDIRYSPSFQGQVTISADKSISTAYLQWSSLKASDTAMYYCARQPGDWSPRHWYFDLWGRGTLVTVSS VL: VIWMTQSPSLLSASTGDRVTISCRMSQGISSYLAWYQQKPGKAPELLIYAASTLQSGVPSRFSGSGSGTDFTLTISYLQSEDFATYYCQQYYSFPLTFGGGTKVEIK | 0.27 | 2.29
